What all share (experiment): SPR
Background: SPR reads the build-up and loss of mass on a sensor chip optically.

Experiment [1] has as its target HIR-1 ectodomain (purified) (C. elegans) (UniProt O76385).
Experiment [2] has as its target ZIG-5 (purified, SPR) (C. elegans) (UniProt Q9XXD7).
In experiment [3] the target is ZIG-4 (purified, SPR) (C. elegans) (UniProt G5ECB1).
In the next experiment the target is T1, ZIG-4 (purified, SPR) (C. elegans, UniProt G5ECB1 17-253).
T1 sequence: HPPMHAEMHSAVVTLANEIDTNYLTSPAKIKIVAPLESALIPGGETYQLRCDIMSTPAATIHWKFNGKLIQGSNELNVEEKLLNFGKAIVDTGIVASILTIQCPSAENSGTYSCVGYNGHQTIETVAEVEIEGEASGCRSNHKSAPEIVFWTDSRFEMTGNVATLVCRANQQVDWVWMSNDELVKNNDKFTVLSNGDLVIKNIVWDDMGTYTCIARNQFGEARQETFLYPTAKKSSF

The target of a further experiment is T2, ZIG-5 (purified, SPR) (C. elegans, UniProt Q9XXD7 26-260).
T2 sequence: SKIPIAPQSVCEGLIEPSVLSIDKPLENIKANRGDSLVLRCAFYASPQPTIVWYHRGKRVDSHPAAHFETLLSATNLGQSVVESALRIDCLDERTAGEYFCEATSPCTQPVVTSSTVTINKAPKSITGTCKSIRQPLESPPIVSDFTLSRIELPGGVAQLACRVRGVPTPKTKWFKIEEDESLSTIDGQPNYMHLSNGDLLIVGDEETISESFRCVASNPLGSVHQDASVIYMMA

Experiment [4] deals with NRX-1 LNS6 domain (purified) (C. elegans).

What is called Kd is the concentration at which binding is half-saturated.

Bounds are passed on as bounds.

As to “B0222.11 (purified) (from UniProt Q4PIU5) (ligand)”, the Kd in experiment [1] was 0.5 nM.
For the molecule INS-1 (purified, SPR) (ligand), the figures for the Kd in experiment [2] and in experiment [3] were 3 nM and more than 1000 nM, respectively.

B1: INS-6 (purified, SPR) (ligand)
chain: VPAPGETRACGRKLISLVMAVCGDLCNPQEGKDIATECCGNQCSDDYIRSACCP
Turning to B1, the Kd with ZIG-4 (purified, SPR) was 0.056 nM; in the experiment with ZIG-5 (purified, SPR), more than 1000 nM.

B2: NLG-1 ectodomain (purified) (receptor)
chain: YDVRSVTTSWGMVRGEVVSPEGDDLPPVAQYLGIPYGVAPTGQYRFNMAISAAKWTHMPKDARKVSPVCIQTDMPELSETKAFKHTSAQRFDFNHRLLPHLKKQSEDCLYMNIYVPERLEISRDNYLPVMVIVHGEEYGWGTGNAFNGTTLAAYGHIIVVTLNYRLGVFGFLGRCESSSCSGNSGISDLVSALTMLNVILPSFGGDSKSVTLAGWGSGASLVSLLMASPLTQPGRRLFRRAILLDGSALSPWAISQNPQQYFMQLAEELACAPKNRTSSFNDNVDTIVRCMQVHSSENITKAVLKIDVPTFLSGFAPIVDGQLIPNKPQVSFSTQYGSLFREIDLLVGISSNPSHHMISNEDLKVGISKEKRMRIFRSLVRNLYDFHREEILASIINEYTDWENPRDHPKSIRNGVLNALSDVLYTAPLIETLRSHSADEVRKEANTFMFAFAHETRSWSQEQPNSGIRGSLSGDIVPYIFGYPLAQGDSEERLYSGFNTDDKGISKVMMHYVSNFVKSGDPSKPNPMSKNFPMGDVFHSTAWPQFDQPNREAYLEITDRPRVKNYYRNAQVGFWNNFIPQLHKNGKETEPVGEEHHLLSDHFRKDSYFGKTRHFSSYANLPFPPPPMPPSPPPELTTKPKPSESPTTLQTTTESEKAAAGSFTGKAL
As for B2, the Kd in experiment [4] is 48000 nM.

For the origin of these results see article PMC11257444 (bioRxiv, 2024).
